Like-named read-outs stand apart in the source and are kept apart here. Each block holds one molecule with its values, some of them ahead of it. Where a SMILES comes first, the peptide text is derived from it. Bridges are numbered along the chain shown (N, C = ends). Where no end group is shown, it is not given here.
How the values were obtained:
[1] = Peptide stability in human serum; format: in vitro ADME; conditions: undiluted human serum, 37° C., anti-CTT antibody dot blot
Method: (§1) FIG. 3A and 3B. Activity and stability of the tryptophan analogue containing CTT peptides. (A) Inhibition of MMP-2 using β-casein (21 IcDa) as substrate. The peptides (100 μM) were incubated with MMP-2 and β-casein (0.1 mg/ml) for 2 h and samples run on a 15% SDS-PAGE gel. (B) iCTT, 5F-CTT or a negative control peptide CERGGLETSC at a 150 μM concentration was incubated in undiluted human serum for the indicated time periods at 37° C. Samples were withdrawn, stored frozen and blotted on a nitrocellulose membrane. The level of CTT was quantitated using polyclonal anti-CTT antibody. The blots were scanned and the results shown are means ±SD from triplicate measurements. The results were similar in two other experiments.
Spectrometry and fluorometry. The absorbance spectrum for each peptide in the 200-375 nm range was measured in 20 mM Tris-HCl (pH 7.4)/50 mM NaCl/0.1 mM EDTA with Genesys 5 spectrophotometer (Thermo Spectronic, Rochester, N.Y.). The fluorescence spectra of the CTT phage cultured in the presence of tryptophan, 5FW or 6FW were measured from heat-denatured phages (2×10^9/ml) in 10 mM Tris-HCl (pH 7.5)/140 mM NaCl/1% SDS. The fluorescence emission spectra (average of three scans) at 300-500 nm were recorded with MOS-250 spectrofluorometer. The peptides were excited at 295 nm (bandwidth 5 nm) and the emission spectra recorded in the 300-500 nm range. Peptide stability in human serum. […]

[2] = Peptide stability in cell culture medium; format: in vitro ADME; conditions: cell culture medium with 10% heat-inactivated fetal calf serum
Method: The gelatinase inhibitory activities of the modified CTT peptides were tested in the β-casein degradation assay (FIG. 3A) and the gelatin degradation assay (data not shown). […] To determine the peptide levels, we used anti-CTT antibody that also recognized the 5F-Trp containing peptide. […] We could not determine the half-lives of 5OH-Trp and 6F-Trp containing peptides as the anti-CTT antibody recognized these peptides only weakly in the presence of serum.

MMP-2 [3] = biological target: T1, MMP-2 (Homo sapiens, UniProt P08253); experiment: Gelatin degradation assay (biotinylated gelatin), MMP-2; format: biochemical
T1 construct: purchased Roche
T1 sequence (P08253 110-660): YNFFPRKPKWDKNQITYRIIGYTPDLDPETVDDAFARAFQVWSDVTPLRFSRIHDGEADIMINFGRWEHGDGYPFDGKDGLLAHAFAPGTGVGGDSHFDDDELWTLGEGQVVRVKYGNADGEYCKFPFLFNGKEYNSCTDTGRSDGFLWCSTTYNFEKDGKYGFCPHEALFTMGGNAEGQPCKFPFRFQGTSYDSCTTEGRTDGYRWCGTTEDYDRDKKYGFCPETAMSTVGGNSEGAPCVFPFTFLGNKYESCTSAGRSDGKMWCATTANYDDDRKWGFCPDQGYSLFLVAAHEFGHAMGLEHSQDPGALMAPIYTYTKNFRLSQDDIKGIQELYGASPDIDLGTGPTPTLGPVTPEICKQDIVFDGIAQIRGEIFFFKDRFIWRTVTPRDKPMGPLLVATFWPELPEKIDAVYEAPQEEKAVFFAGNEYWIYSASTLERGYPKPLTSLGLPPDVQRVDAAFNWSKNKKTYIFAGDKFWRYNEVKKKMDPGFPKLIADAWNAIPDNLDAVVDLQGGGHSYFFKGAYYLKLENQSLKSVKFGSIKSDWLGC
Method: (§2) FIG. 1A and 1B. Inhibition of NWP-2 and MMP-9 by synthetic or intein-produced peptides. (A) MMP-9 was treated with CTT, iCTT, or STT at the peptide concentrations indicated. MMP-9 activity was determined using biotinylated gelatin. (13) The activity of the alanine mutant peptides (see Table 1) was compared to that of CTT, which inhibited MMP-2 by 100% in the gelatin degradation assay. In all assays the peptides were preincubated with the enzyme for 30 min before the substrate was added.
(§3) Gelatinase inhibition assays. Gelatiases proMMP-2 and proMMP-9 (Roche) were activated with p-aminophenylmercuric acetate or trypsin, respectively, and then incubated in the presence or absence of each peptide to be tested for 30 min. The gelatinase inhibitory activity was determined using the following three assays: (i) The degradation of biotinylated gelatin was examined using a gelatinase activity kit according to the manufacturer's instructions. (Roche). (ii) The degradation of a MMP-2 specific fluorescent peptide substrate MCA-Pro-Leu-Ala-Nva-Dpa-Ala-Arg-NH2 (Calbiochem) (2.5 μM final concentration) was followed using MOS-250 spectrofluorometer (Bio-Logic SA, Claix, France) with 330 nm excitation and 390 nm emission. (iii) The degradation of β-casein was studied by incubating activated MMP-2 with 0.1 mg/ml concentration of β-casein for 2 h at 37° C., after which the samples were analyzed on a 15% SDS-PAGE gel.

MMP-9 = biological target: T2, MMP-9 (Homo sapiens, UniProt P14780); experiment: Gelatin degradation assay (biotinylated gelatin), MMP-9; format: biochemical
T2 construct: purchased Roche
Method: as §2
as §3, with “(ii) The degradation of a MMP-2 specific fluorescent peptide substrate MCA-Pro-Leu-Ala-Nva-Dpa-Ala-Arg-NH2 (Calbiochem) (2.5 μM final concentration) was followed using MOS-250 spectrofluorometer (Bio-Logic SA, Claix, France) with 330 nm excitation and 390 nm emission.” left out

[4] = Solubility in water / PBS
Method: The oligonucleotide was made double-stranded using PCR. The PCR product was digested with PstI and SapI and cloned to TWIN2 intein vector (New England Biolabs), digested also with PstI and SapI. This DNA construct was electroporated into MC1061 competent cells. […] The plasmid vectors were extracted from the pool of at least 216 independent clones of MC1061. The plasmids were then electroporated to ER2566 cells enabling the production of inteins. The cells harboring the plasmids were plated on LB plates containing ampicillin. 10 independent clones were pooled to one single pool. These 10 clones in one pool were cultured and the peptides were expressed and purified with chitin affinity column and reverse-phase C18 column. Each pool of peptides was tested for activity. The solubility in PBS was also tested. […] The plasmid coding for this peptide was sequenced and the peptide was synthesized with chemical synthesis.

MMP-2 [5] = biological target: T1, MMP-2; experiment: β-casein degradation assay; format: biochemical; conditions: peptide 100 μM; β-casein 0.1 mg/ml, 2 h
Method: as §1
as §3, with “(ii) The degradation of a MMP-2 specific fluorescent peptide substrate MCA-Pro-Leu-Ala-Nva-Dpa-Ala-Arg-NH2 (Calbiochem) (2.5 μM final concentration) was followed using MOS-250 spectrofluorometer (Bio-Logic SA, Claix, France) with 330 nm excitation and 390 nm emission.” left out

gelatinase A (MMP-2) = biological target: T3, gelatinase A (MMP-2) (Homo sapiens, UniProt P08253); experiment: Inhibition of gelatinase A by hydrophilic CTT library peptides; format: biochemical; conditions: FIG. 5
T3 construct: purchased Roche
T3 sequence (P08253 110-660): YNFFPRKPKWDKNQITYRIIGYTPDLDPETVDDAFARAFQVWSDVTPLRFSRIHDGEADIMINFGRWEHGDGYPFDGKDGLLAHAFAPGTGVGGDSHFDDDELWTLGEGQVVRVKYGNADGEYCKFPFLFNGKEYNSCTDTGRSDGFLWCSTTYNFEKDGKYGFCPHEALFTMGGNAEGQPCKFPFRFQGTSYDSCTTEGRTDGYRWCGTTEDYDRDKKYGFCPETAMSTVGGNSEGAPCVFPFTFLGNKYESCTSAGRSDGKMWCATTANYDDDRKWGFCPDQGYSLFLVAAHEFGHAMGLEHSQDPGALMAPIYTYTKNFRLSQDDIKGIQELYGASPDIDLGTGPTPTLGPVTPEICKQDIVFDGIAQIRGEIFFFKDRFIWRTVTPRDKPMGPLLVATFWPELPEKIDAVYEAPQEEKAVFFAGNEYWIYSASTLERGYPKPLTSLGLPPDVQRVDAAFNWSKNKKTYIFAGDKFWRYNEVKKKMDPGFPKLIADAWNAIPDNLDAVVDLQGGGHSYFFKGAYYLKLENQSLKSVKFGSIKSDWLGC
From the text: FIG. 5. Inhibition of gelatiaase A (MMP-2) with CTT-peptide, with pool 1 and pool 2, both containing 10 different peptide derivates of CTT. The library contains 216 different combinations of CTT peptide derivates. Clone 4 from pool 1 and clone 7 from pool 2 were purified and tested also for their inhibition activity against gelatinase A.
as §3
The oligonucleotide was made double-stranded using PCR. […] This DNA construct was electroporated into MC1061 competent cells. […]

[6] = biological target: T4, MMP-2 (gelatinase A), activated (UniProt P08253 30-660, limits assumed); experiment: cell-based or functional assay
T4 sequence (looked up): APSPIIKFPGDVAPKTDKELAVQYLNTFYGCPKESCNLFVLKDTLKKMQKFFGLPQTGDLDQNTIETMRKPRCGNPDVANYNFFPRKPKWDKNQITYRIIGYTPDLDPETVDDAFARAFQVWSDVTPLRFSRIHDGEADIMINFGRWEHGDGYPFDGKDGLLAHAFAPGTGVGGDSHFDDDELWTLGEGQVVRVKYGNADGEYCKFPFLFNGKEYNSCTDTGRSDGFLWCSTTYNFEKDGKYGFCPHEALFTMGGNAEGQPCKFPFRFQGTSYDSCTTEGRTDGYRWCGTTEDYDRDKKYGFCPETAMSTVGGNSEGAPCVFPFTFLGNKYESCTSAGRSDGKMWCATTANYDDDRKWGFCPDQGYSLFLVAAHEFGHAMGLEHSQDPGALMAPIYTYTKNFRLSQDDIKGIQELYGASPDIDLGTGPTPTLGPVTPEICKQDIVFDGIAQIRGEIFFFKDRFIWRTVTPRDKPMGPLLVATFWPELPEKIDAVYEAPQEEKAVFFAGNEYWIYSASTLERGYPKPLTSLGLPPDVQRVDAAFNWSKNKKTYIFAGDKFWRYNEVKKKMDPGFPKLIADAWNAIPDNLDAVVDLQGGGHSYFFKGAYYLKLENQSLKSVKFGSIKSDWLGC

MMP-9, activated = MMP-9, activated (UniProt P14780 20-707, limits assumed); experiment: cell-based or functional assay
Sequence of MMP-9, activated (P14780 20-707 limits assumed): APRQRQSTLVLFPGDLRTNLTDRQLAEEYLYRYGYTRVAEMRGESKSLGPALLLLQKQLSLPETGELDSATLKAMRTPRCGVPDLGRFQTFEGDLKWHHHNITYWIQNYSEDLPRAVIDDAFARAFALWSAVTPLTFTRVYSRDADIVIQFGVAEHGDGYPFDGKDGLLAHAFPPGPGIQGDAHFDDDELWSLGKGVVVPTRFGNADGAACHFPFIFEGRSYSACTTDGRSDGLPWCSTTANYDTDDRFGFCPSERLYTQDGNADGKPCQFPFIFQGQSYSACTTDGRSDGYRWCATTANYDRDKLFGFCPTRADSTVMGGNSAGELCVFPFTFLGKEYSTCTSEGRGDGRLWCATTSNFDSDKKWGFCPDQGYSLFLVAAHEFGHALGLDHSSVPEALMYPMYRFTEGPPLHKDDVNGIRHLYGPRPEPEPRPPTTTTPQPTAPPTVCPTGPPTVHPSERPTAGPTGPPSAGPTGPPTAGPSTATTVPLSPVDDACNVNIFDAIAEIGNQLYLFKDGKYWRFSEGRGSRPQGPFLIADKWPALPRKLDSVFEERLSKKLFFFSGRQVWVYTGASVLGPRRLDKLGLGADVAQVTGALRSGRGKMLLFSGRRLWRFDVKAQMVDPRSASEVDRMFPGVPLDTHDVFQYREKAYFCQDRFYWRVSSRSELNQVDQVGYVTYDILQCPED

T2 sequence (P14780 107-707 limits assumed): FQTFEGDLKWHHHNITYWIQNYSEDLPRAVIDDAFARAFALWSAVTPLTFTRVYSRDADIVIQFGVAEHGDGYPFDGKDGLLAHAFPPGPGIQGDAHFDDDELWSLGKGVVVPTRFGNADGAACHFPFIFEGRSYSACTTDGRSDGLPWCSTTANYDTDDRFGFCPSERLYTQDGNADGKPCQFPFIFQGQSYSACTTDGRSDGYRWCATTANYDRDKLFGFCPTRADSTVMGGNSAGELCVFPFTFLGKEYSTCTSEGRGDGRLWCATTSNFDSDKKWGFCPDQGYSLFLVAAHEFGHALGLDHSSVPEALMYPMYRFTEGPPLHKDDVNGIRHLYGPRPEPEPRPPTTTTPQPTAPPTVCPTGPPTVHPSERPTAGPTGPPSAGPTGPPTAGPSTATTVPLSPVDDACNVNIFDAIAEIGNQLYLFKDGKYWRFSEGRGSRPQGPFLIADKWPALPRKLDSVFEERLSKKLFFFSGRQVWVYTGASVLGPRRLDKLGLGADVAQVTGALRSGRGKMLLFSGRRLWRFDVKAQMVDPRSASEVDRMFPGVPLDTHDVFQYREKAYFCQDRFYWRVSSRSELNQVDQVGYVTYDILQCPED

Molecule: CC(C)C[C@@H]1NC(=O)[C@H]([C@@H](C)O)NC(=O)[C@H](Cc2ccccc2)NC(=O)CNC(=O)[C@H](Cc2c[nH]c3ccccc23)NC(=O)[C@H](Cc2c[nH]cn2)NC(=O)[C@H]([C@@H](C)O)NC(=O)[C@H]([C@@H](C)O)NC(=O)[C@@H](N)CSSC[C@@H](C(=O)O)NC1=O [CTT, CTTHWGFTLC] (HELM PEPTIDE1{C.T.T.H.W.G.F.T.L.C}$PEPTIDE1,PEPTIDE1,1:R3-10:R3$$$V2.0; bridges inferred)
IC50 (MMP-2 [3]; 30 min preincubation, read-out: IC50, MMP-2 inhibition): 20 µM | inhibition of MMP-2 (MMP-2 [3]; FIG. 1B): 100% | IC50 (MMP-9; 30 min preincubation, read-out: IC50, MMP-9 inhibition): 20 µM | solubility [4]: water-soluble

Molecule: CC(C)C[C@@H]1NC(=O)[C@H]([C@@H](C)O)NC(=O)[C@H](Cc2ccccc2)NC(=O)CNC(=O)[C@H](Cc2c[nH]c3ccccc23)NC(=O)[C@H](Cc2c[nH]cn2)NC(=O)[C@H]([C@@H](C)O)NC(=O)[C@H]([C@@H](C)O)NC(=O)[C@@H](N)CSSC[C@@H](C(=O)O)NC1=O [iCTT, CTTHWGFTLC] (HELM PEPTIDE1{C.T.T.H.W.G.F.T.L.C}$PEPTIDE1,PEPTIDE1,1:R3-10:R3$$$V2.0; N-terminus and C-terminus assumed)
inhibition of casein degradation by MMP-2 (MMP-2 [5]): nearly complete inhibition | half-life at 150 μM [1]: 0.5 h

Molecule: GRENYHGCTTRWGFTLC
gelatinase A inhibitory activity (gelatinase A (MMP-2)): active | solubility ([4]; water or PBS): more soluble into water or PBS than the original peptide

B1: CTT: CTTHWGFTLC peptide (chemically synthesized) (peptide)
peptide: CTTHWGFTLC
modifications: disulfide 1-10 (inferred)
IC50, gelatin degradation assay [6]: 20 µM | IC50, gelatin degradation assay (MMP-9, activated): 20 µM

B4: iCTT: recombinant CTTHWGFTLC peptide (peptide)
peptide: CTTHWGFTLC
modifications: disulfide 1-10 (inferred)
IC50, gelatin degradation assay [6]: 20 µM | IC50, gelatin degradation assay (MMP-9, activated): 20 µM

B5: G → A alanine mutant of CTT (peptide)
peptide: CTTHWAFTLC
modifications: disulfide 1-10 (inferred)
activity in comparison to the wild type peptide, gelatin degradation assay [6]: 53 % of the activity of the wild type peptide

The next lines start with the values.

half-life at 150 μM [1]: 3 h | stability compared with CTT [2]: No difference
Molecule: CC(C)C[C@@H]1NC(=O)[C@H]([C@@H](C)O)NC(=O)[C@H](Cc2ccccc2)NC(=O)CNC(=O)[C@H](Cc2c[nH]c3ccc(F)cc23)NC(=O)[C@H](Cc2c[nH]cn2)NC(=O)[C@H]([C@@H](C)O)NC(=O)[C@H]([C@@H](C)O)NC(=O)[C@@H](N)CSSC[C@@H](C(=O)O)NC1=O [5F-Trp containing peptide, CTTH(5FW)GFTLC] (HELM PEPTIDE1{C.T.T.H.[O=C([C@H](Cc1c[nH]c2ccc(F)cc12)N[*:1])[*:2]].G.F.T.L.C}$PEPTIDE1,PEPTIDE1,1:R3-10:R3$$$V2.0; N-terminus and C-terminus assumed)

% of the activity in comparison to the wild type peptide (MMP-2 [3]; FIG. 1B, CTT = 100% inhibition): about 80%
Molecule: CTTAWGFTLC (disulfide 1-10 (inferred)) [H→A, Ala-substitution of the CTT-peptide]

gelatinase inhibitory activity relative to iCTT (MMP-9; FIG. 1A): several fold less active than iCTT
Molecule: STTHWGFTLS [non-cyclic synthetic control peptide]

activity in comparison to the wild type peptide, gelatin degradation assay [6]: 17 % of the activity of the wild type peptide
B2: W → A alanine mutant of CTT (peptide)
peptide: CTTHAGFTLC
modifications: disulfide 1-10 (inferred)

activity in comparison to the wild type peptide, gelatin degradation assay [6]: 36 % of the activity of the wild type peptide
B3: F → A alanine mutant of CTT (peptide)
peptide: CTTHWGATLC
modifications: disulfide 1-10 (inferred)
